We go through 4 substances from US20220332769A1.

Holding throughout (test): cell-based or functional assay
The target of test [1] is SARS CoV-1 spike on pseudotyped lentivirus (CoV-1 PVP) (SARS CoV-1) (UniProt P59594).
Test [2] concerns the target Spike protein of live SARS CoV-2 virus (original USA-WA1/2020 strain) (SARS CoV-2) (UniProt P0DTC2).
In test [3] the target is MERS spike on pseudotyped lentivirus (MERS-PVP) (MERS coronavirus) (UniProt K9N5Q8).

Take “ACE2-VGTM MVP (decoy multivalent particle displaying ACE2 fused with VSVG transmembrane domain)”: in test [1], the IC50, CoV-1 pseudovirus microneutralization assay, 293T/ACE2 target cells is 0.13 pM and the IC50, CoV-1 pseudovirus neutralization assay, VERO-E6 target cells was 0.44 pM. In test [2], this substance came in with an IC50, live CoV-2 virus microneutralization assay of 57 pM; an IC50, live virus PRNT assay, USA-WA1/2020 strain of 0.98 pM; a reduction of viral titer, live CoV-2 virus microneutralization assay of over 6 logs.

“HCΔ-DPP4 MVP (decoy multivalent particle displaying DPP4 extracellular domain fused to measles HCΔ18)” displayed an IC50, MERS pseudovirus microneutralization assay, H1650 target cells in test [3] of 2.96 pM.

“NA75-DPP4 MVP (DPP4 extracellular domain fused to influenza neuraminidase N-terminus and transmembrane regions) (from UniProt P27487 30-766)” had an IC50, MERS pseudovirus neutralization assay, H1650 target cells in test [3] of 0.87 pM.

“Recombinant DPP4 protein (from UniProt P27487 39-766) (receptor)” had an IC50, MERS pseudovirus microneutralization assay, H1650 target cells in test [3] of over 48000 pM.
